Laboratory results: patent US20200369765A1 (INNATE PHARMA, published 2020)

T1: Human Siglec-5 (human, UniProt O15389 17-551)
T1 construct: Expressed on transfected CHO cells; also called HuSiglec-5
T1 sequence: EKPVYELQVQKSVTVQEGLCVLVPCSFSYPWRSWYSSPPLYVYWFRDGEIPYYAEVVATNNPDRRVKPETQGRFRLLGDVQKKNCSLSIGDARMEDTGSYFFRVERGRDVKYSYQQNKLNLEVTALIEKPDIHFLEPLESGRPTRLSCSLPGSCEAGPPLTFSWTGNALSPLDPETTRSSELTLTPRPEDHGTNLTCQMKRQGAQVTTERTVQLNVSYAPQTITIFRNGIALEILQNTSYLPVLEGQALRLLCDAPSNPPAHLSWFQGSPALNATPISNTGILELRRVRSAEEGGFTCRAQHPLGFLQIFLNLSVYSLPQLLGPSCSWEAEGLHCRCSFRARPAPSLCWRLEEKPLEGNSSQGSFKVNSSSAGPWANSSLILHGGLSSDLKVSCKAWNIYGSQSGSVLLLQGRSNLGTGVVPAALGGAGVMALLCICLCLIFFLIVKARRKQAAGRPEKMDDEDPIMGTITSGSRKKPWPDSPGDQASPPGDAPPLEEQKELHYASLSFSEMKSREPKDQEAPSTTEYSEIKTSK

T2: Human Siglec-11 (human, UniProt Q96RL6 29-698)
T2 construct: Expressed on transfected CHO cells; also called HuSiglec-11
T2 sequence: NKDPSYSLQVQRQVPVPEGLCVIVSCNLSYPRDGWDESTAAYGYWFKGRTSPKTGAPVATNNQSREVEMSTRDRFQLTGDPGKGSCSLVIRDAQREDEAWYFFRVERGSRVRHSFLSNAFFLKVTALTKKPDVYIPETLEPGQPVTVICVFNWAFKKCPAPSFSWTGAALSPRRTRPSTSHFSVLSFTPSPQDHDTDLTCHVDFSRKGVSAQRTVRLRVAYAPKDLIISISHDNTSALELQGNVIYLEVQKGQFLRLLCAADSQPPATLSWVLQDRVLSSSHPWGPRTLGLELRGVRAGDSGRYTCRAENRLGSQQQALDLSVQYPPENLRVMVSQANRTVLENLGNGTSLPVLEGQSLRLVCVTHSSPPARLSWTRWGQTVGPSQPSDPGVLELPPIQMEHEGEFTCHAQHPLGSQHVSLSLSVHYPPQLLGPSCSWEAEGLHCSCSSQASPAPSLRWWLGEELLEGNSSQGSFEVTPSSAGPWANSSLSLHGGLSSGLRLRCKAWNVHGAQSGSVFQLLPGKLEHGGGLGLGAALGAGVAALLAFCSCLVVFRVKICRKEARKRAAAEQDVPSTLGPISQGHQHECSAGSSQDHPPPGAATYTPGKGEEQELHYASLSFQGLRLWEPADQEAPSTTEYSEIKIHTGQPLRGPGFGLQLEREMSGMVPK

T3: Human Siglec-10 (human, UniProt Q96LC7 17-697)
T3 construct: Expressed on transfected CHO cells; also called HuSiglec-10
T3 sequence: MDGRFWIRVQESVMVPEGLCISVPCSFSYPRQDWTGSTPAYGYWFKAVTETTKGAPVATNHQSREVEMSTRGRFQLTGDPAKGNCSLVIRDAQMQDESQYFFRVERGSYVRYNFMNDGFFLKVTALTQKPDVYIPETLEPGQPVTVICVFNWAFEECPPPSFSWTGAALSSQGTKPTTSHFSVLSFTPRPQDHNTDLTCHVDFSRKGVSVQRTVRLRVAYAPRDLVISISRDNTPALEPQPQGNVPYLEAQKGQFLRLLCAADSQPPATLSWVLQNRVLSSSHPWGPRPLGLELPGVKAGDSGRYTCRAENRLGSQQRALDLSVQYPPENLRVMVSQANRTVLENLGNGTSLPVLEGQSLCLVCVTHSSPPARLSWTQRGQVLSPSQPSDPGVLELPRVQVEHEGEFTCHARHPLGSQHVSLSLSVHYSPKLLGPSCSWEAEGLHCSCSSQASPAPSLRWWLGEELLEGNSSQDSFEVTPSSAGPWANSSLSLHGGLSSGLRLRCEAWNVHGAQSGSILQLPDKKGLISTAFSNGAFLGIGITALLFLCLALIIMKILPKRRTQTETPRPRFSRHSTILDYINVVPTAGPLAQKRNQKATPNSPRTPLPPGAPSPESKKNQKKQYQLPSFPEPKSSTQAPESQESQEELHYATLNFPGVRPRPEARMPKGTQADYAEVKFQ


What was measured:
[1] = biological target: T4, Human Siglec-9 mutant M14 (human, UniProt Q9Y336 18-463); assay: flow cytometry, HEK293T transfectants
T4 construct: Expressed on HEK293T cells; also called Mutant 14
T4 sequence (Q9Y336 other isoform, or with tags, fused parts or gaps mutant): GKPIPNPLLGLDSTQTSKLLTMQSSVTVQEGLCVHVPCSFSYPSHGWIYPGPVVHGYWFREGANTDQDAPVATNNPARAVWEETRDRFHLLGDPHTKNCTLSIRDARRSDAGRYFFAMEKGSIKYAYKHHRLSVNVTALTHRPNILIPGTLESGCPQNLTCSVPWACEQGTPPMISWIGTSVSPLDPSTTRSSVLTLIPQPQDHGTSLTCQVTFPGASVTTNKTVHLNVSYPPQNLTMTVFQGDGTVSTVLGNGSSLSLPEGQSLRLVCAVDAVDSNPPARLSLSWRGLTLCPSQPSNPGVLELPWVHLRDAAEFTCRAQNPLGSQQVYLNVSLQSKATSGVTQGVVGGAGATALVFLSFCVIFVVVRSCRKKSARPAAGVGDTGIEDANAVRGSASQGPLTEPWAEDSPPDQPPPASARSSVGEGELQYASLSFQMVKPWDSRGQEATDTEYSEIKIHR

[2] = biological target: T5, Human Siglec-9 mutant M15 (human, UniProt Q9Y336 18-463); assay: flow cytometry, HEK293T transfectants
T5 construct: Expressed on HEK293T cells; also called Mutant 15
T5 sequence (Q9Y336 other isoform, or with tags, fused parts or gaps mutant): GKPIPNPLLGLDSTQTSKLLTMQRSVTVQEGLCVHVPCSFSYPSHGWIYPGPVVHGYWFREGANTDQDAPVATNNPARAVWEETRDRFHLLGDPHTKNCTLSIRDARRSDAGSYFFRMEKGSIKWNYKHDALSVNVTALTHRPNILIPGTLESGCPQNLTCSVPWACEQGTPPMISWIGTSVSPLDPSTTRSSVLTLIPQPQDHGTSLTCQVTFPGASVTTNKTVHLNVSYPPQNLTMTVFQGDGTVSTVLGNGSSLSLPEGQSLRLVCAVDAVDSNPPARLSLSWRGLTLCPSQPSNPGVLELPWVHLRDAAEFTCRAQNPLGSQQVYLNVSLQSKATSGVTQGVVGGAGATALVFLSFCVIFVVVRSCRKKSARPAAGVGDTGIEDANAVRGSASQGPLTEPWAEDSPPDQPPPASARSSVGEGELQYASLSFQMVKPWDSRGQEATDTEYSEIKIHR

Human Siglec-9 mutant M3 = biological target: T6, Human Siglec-9 mutant M3 (human, UniProt Q9Y336 18-463); assay: flow cytometry, HEK293T transfectants
T6 construct: Expressed on HEK293T cells; also called Mutant 3
T6 sequence (Q9Y336 other isoform, or with tags, fused parts or gaps mutant): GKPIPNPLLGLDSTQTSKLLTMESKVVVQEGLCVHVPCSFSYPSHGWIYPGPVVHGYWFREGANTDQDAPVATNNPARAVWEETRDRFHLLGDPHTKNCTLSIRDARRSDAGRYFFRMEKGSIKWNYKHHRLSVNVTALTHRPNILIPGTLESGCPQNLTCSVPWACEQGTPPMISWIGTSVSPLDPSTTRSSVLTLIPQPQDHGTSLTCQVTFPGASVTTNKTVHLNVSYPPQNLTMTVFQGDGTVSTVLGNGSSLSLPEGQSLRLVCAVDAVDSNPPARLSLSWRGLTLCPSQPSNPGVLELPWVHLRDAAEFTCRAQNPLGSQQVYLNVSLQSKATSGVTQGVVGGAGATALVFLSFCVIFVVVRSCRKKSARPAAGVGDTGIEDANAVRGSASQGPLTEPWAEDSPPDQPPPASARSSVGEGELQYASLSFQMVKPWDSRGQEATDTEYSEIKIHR

Human Siglec-9 mutant M8 = biological target: T7, Human Siglec-9 mutant M8 (human, UniProt Q9Y336 18-463); assay: flow cytometry, HEK293T transfectants
T7 construct: Expressed on HEK293T cells; also called Mutant 8
T7 sequence (Q9Y336 other isoform, or with tags, fused parts or gaps mutant): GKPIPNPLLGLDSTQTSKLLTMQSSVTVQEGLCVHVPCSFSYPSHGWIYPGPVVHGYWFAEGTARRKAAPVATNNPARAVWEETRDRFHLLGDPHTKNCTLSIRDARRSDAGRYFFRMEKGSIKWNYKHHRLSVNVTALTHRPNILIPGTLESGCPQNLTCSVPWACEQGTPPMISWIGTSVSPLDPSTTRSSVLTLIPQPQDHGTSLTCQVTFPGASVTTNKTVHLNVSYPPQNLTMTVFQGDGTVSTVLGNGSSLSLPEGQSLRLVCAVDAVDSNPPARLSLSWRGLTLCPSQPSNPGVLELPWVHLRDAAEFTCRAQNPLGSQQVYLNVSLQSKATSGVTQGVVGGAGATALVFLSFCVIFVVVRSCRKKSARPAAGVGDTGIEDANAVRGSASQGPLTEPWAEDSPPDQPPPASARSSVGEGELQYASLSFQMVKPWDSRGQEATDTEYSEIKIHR

Human Siglec-12 = biological target: T8, Human Siglec-12 (human, UniProt Q96PQ1 19-595); assay: flow cytometry, CHO transfectants
T8 construct: Expressed on transfected CHO cells; also called HuSiglec-12
T8 sequence (Q96PQ1 19-595): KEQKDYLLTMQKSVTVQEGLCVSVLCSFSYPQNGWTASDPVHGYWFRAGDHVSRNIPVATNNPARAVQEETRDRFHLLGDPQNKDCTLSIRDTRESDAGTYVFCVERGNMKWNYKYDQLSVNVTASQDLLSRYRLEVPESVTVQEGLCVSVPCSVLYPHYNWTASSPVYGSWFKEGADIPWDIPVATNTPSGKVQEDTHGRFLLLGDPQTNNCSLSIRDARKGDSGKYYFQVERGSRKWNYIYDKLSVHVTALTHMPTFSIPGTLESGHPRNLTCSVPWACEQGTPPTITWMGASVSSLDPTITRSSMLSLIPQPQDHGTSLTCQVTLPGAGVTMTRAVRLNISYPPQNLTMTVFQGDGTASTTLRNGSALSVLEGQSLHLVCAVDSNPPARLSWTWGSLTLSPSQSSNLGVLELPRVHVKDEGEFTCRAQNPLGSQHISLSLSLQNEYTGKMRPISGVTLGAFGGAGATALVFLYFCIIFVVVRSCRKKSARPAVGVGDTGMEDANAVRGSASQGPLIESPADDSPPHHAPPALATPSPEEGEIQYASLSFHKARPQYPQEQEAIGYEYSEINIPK

Human Siglec-6 = biological target: T9, Human Siglec-6 (human, UniProt O43699 27-453); assay: flow cytometry, CHO transfectants
T9 construct: Expressed on transfected CHO cells; also called HuSiglec-6
T9 sequence (O43699 other isoform, or with tags, fused parts or gaps): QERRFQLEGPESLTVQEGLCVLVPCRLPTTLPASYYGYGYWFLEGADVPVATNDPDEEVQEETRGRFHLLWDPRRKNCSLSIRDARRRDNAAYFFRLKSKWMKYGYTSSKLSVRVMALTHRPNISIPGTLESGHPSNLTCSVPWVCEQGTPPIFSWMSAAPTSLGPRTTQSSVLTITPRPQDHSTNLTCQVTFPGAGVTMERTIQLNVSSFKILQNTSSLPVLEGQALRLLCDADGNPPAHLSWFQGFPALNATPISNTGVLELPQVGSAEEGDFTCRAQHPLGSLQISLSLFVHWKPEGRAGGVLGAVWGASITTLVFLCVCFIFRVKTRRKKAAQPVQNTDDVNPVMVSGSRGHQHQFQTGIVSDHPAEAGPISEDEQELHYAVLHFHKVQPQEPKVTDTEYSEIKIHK

Human Siglec-8 = biological target: T10, Human Siglec-8 (human, UniProt Q9NYZ4 17-499); assay: flow cytometry, CHO transfectants
T10 construct: Expressed on transfected CHO cells; also called HuSiglec-8
T10 sequence (Q9NYZ4 17-499): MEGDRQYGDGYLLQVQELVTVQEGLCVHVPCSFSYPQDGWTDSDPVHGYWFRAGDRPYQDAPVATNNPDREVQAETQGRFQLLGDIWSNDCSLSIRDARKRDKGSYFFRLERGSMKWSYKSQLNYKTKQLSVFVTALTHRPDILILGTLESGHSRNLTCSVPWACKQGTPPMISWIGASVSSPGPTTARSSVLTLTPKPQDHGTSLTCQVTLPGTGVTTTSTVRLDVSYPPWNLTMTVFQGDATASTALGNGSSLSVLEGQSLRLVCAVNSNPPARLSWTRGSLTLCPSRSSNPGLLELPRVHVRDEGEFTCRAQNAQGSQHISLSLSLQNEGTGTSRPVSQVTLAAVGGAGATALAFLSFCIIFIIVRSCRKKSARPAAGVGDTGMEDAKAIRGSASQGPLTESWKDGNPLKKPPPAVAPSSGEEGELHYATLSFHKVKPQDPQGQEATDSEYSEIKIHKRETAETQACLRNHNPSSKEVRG

Human Siglec-5 = biological target: T1, Human Siglec-5; assay: flow cytometry, CHO transfectants
Human Siglec-11 = biological target: T2, Human Siglec-11; assay: flow cytometry, CHO transfectants
Human Siglec-3 = biological target: T11, Human Siglec-3 (human, UniProt P20138 18-364); assay: flow cytometry, CHO transfectants
T11 construct: Expressed on transfected CHO cells; also called HuSiglec-3; CD33
T11 sequence (P20138 18-364 R69G): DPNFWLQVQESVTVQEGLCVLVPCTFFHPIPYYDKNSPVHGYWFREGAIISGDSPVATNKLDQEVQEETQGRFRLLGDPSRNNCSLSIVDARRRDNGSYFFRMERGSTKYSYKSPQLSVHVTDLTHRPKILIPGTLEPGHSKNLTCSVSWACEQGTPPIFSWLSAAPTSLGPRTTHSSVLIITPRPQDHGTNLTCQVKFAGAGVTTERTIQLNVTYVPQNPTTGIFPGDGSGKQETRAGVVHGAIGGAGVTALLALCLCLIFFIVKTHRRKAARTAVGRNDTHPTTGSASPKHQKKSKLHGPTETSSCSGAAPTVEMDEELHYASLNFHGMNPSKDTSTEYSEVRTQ

Human Siglec-10 = biological target: T3, Human Siglec-10; assay: flow cytometry, CHO transfectants
Human Siglec-9 mutant M7 = biological target: T12, Human Siglec-9 mutant M7 (human, UniProt Q9Y336 18-463); assay: flow cytometry, HEK293T transfectants
T12 construct: Expressed on HEK293T cells; also called Mutant 7
T12 sequence (Q9Y336 other isoform, or with tags, fused parts or gaps mutant): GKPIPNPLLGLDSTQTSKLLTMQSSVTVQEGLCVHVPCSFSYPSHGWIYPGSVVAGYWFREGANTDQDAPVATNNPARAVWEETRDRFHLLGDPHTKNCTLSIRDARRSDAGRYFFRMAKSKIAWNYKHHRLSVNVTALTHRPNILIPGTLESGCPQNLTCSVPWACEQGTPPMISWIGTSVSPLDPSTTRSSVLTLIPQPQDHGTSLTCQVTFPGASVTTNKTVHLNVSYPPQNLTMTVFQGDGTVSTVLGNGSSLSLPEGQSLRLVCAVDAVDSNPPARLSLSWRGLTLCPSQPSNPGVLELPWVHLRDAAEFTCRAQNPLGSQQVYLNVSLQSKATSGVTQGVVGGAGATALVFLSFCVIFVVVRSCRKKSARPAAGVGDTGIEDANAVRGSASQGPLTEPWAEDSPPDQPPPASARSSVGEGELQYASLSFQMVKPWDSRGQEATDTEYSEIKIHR

Human Siglec-9 mutant M6 = biological target: T13, Human Siglec-9 mutant M6 (human, UniProt Q9Y336 18-463); assay: flow cytometry, HEK293T transfectants
T13 construct: Expressed on HEK293T cells; also called Mutant 6
T13 sequence (Q9Y336 other isoform, or with tags, fused parts or gaps mutant): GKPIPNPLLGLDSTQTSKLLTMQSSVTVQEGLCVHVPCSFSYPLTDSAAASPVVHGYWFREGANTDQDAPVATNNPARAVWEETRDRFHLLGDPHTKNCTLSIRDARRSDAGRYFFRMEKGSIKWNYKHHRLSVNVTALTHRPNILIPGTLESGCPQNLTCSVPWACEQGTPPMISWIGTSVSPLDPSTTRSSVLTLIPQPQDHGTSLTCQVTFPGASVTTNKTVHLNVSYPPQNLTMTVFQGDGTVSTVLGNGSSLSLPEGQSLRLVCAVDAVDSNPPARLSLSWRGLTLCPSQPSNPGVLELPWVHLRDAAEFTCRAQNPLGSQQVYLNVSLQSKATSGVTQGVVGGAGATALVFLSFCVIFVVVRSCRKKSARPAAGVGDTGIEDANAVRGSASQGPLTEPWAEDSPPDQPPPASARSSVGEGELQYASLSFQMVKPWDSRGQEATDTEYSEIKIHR

binding result [1] | binding result [2] | binding result (Human Siglec-9 mutant M3) | binding result (Human Siglec-9 mutant M8) | binding result (Human Siglec-12) | binding result (Human Siglec-6) | binding result (Human Siglec-8) | binding result (Human Siglec-5) | binding result (Human Siglec-11) | binding result (Human Siglec-3) | binding result (Human Siglec-10) | binding result (Human Siglec-9 mutant M7) | binding result (Human Siglec-9 mutant M6) | Binder
binds | binds | binds | binds | no binding | no binding | no binding | no binding | no binding | no binding | no binding | – | – | mAbD (antibody, human IgG1, V domains shown) VH: QIQLVQSGPELKKPGETVKISCKASGYTFTDYSMHWVKQAPGKGLKWMGWIITETGEPTYADDFRGRFAFSLETSANTAYLQINNLKNEDTATYFCARDFDGYWGQGTTLTVSS VL: DILMTQSPASLSASVGETVTITCRASENIYSYLAWYQQKRGKSPQFLVYNAKTLTEGVPSRFRGSGSGTQFSLKINSLQPEDFGTYYCQHHYGFPWTFGGGTKLEIK
binds | binds | binds | binds | binds | no binding | no binding | no binding | no binding | no binding | no binding | binds | binds | mAb1 (antibody, human IgG1, V domains shown) VH: DVQLQESGPGLVKPSQSLSLTCTVTGYSITGGFAWNWIRQFPGNTLEWMGYIGYGGSTSYNPSLNSRISITRDTSKNHFFLQFNSVTTDDSATYYCARGDYLFAYWGQGTLVTVSA VL: DIVMTQSHKFMSTSVGDRVSITCKASQDVNTAVAWYQQKPGQSPKLLIYSASYRYTGVPDRFTGSGSGTDFTFTISSVQAEDLAVYYCQQHYSTPRTFGGGTKLEIK
binds | binds | binds | binds | binds | no binding | no binding | no binding | no binding | no binding | no binding | binds | binds | mAb2 (antibody, human IgG1, V domains shown) VH: EVQLQESGPGLVKPSQSLSLTCTVTGYSITGGFAWNWIRQFPGNTLEWMGYIGYGGSTSYNPSLNSRISITRDTSKNHFFLQFNSVTTEDSATYYCARGDYLFAYWGQGTLVTVSA VL: DIVMTQSHKFMSTSVGDRVSITCKASQDVNTAVAWYQQKPGQSPKLLIYSASYRYTGVPDRFTGSGSGTDFTFTISSVQAEDLAVYYCQQHYSTPRTFGGGTKLEIK
binds | binds | binds | binds | binds | no binding | no binding | no binding | no binding | no binding | no binding | binds | binds | mAb3 (antibody, human IgG1, V domains shown) VH: EVQLLETGPGLVKPSQSLSLTCTVTGYSITGGFAWNWIRQFPGNTLEWMGYIGYGGSTSYNPSLNSRISITRDTSKNHFFLQFNSVTTEDSATYYCARGDYLFAYWGQGTLVTVSA VL: DILMTQSPASLSASVGETVSITCRASGNIHNYLAWYLQRQGKSPQLLVYNAKTLADGVPSRFSGTGSGTQFSLKINSLQPEDFGSYYCQHFWSTPRTFGGGTKLEIK
binds | binds | binds | – | no binding | no binding | no binding | no binding | no binding | no binding | no binding | binds | binds | mAbF (antibody, human IgG1, V domains shown) VH: QVQLQQSGPEVVRPGVSVKISCKGSGYTFTDYSMHWVKQSHAKSLEWIGVISTYNGNTNYNQKFKGKATMTVDKSSSTAYMELARLTSEDSAIYYCARRGYYGSSSWFGYWGQGTLVTVSA VL: DIVMTQSQKFMSTSVGDRVSVTCKASQNVGTDVAWYQQKPGQSPEALIYSASYRYSGVPDRFTGSGSGADFTLTISNVQSEDLAEYFCQQYNSFPYTFGGGTKLEIK
